Measured values: paper PMC10917881, “Biochemical characterization of L-asparaginase isoforms from Rhizobium etli—the boosting effect of zinc” (Frontiers in Chemistry, 2024)

Experiments:
[1] = substrate: C=CC(N)=O; test: ITC, Michaelis-Menten fit; format: biochemical, Rhizobium etli; settings: possible substrate only: heat signal, product not confirmed by Nessler, protein adduct not excluded; fit before product inhibition / inactivation
Description: ITC, Michaelis-Menten fit on ReAIV | after acrylamide injection into the reaction cell containing ReAIV, but not ReAV

[2] = substrate: NC(=O)C[C@H](N)C(=O)O; test: ITC multiple injection method (heat-rate); format: biochemical, Rhizobium etli; settings: 10 mM Tris-HCl pH 9.0, 37°C, with optimal 1 µM Zn2+ (metal cofactor)
Description: ITC multiple injection method (heat-rate) on ReAIV

purified protein = substrate: NC(=O)C[C@H](N)C(=O)O; test: purified protein; settings: 10 mM Tris-HCl pH 9.0, 37°C, with optimal Zn2+ (metal cofactor)
[3] = substrate: NC(=O)C[C@H](N)C(=O)O; test: ITC multiple injection method (heat-rate); format: biochemical, Rhizobium etli; settings: Tris-HCl pH 9.0, 37°C
Description: ITC multiple injection method (heat-rate) on ReAV

[4] = with optimal 2.5 µM Zn2+ (metal cofactor)

B1: ReAIV (Rhizobium etli CFN 42) (protein)
chain: MTNPVTVEVTRGLLVESRHRGAVAVVDGDGKLFFSLGDIDTAVFPRSACKAMQALPLVESGAADAYGFGDKELALACASHNGEEEHVALAASMLSRAGRNVEALECGAHWSMNQKVLIQQARSLDAPTALHNNCSGKHAGFICACCHRDIDPKGYVGYEHPLQVEIRAVMERLTGAVLGAESCGTDGCSIPTYAMPLRNLAHGFARMATGTGLEPLRAKASRRLIEACMAEPFYVAGSGRACTKLMQIAPGRIFVKTGAEGVFCAAIPEKGIGISLKSEDGATRAAEAMVAATLARFFETEETVHAALMAFAAMPMRNWNGIHVGDIRATSVFSA
notes: full length, 335 residues; N-terminal 6xHis tag cut off by TEV (pET151D); E. coli BL21 Gold (DE3); homodimer
Km [1]: 5500 µM
kcat [1]: 12.6 s⁻¹
Km [2]: 1500 ± 100 µM
kcat [2]: 770 ± 17 s⁻¹
kcat/Km [2]: 526000 ± 34000 M⁻¹ s⁻¹

B2: ReAIV (Rhizobium etli CFN 42; K137A) (protein)
chain: MTNPVTVEVTRGLLVESRHRGAVAVVDGDGKLFFSLGDIDTAVFPRSACKAMQALPLVESGAADAYGFGDKELALACASHNGEEEHVALAASMLSRAGRNVEALECGAHWSMNQKVLIQQARSLDAPTALHNNCSGAHAGFICACCHRDIDPKGYVGYEHPLQVEIRAVMERLTGAVLGAESCGTDGCSIPTYAMPLRNLAHGFARMATGTGLEPLRAKASRRLIEACMAEPFYVAGSGRACTKLMQIAPGRIFVKTGAEGVFCAAIPEKGIGISLKSEDGATRAAEAMVAATLARFFETEETVHAALMAFAAMPMRNWNGIHVGDIRATSVFSA
Km (purified protein): 2300 ± 100 µM
kcat (purified protein): 158 s⁻¹
kcat/Km (purified protein): 70000 M⁻¹ s⁻¹

B3: ReAV (Rhizobium etli CFN 42) (protein)
chain: MTPSEDFVVTDRGGIVENSHRVHAAVVDAKGRLLYALGNPTRMTLARSAAKPAQALAILETEGVAGYGFDDADIALMCASHSSEDRHIARTRAMLSKIKAEEADLRCGGHPSLSEMVNRSWIKQDFIPTAVCSNCSGKHVGMLAGARAIGAGTDGYHLPDHPMQGRVKRTVAELCDLDAGDVEWGTDGCNLPTPAFPLDRLGRIYAKLASAADGSDAGEGQSTRCAALAHIFRAMARHPEMVAGEGRYCTMLMRAFDGALVGKLGADASYAIGVRASDATRQLGTDGALGISVKIEDGNLEMLYAVVTELLERLGIGSPDVRSQLASFHHPQRVNTMGVTTGGVSFPFKLRGSKSNVDDPRLAAVAR
notes: full length, 367 residues; N-terminal 6xHis tag cut off by TEV (pET151D); E. coli BL21 Gold (DE3); homodimer
Km [3, 4]: 2100 ± 200 µM
kcat [3, 4]: 603 ± 24 s⁻¹
kcat/Km [3, 4]: 294000 ± 31000 M⁻¹ s⁻¹

B4: ReAV (Rhizobium etli CFN 42; K138A) (protein)
chain: MTPSEDFVVTDRGGIVENSHRVHAAVVDAKGRLLYALGNPTRMTLARSAAKPAQALAILETEGVAGYGFDDADIALMCASHSSEDRHIARTRAMLSKIKAEEADLRCGGHPSLSEMVNRSWIKQDFIPTAVCSNCSGAHVGMLAGARAIGAGTDGYHLPDHPMQGRVKRTVAELCDLDAGDVEWGTDGCNLPTPAFPLDRLGRIYAKLASAADGSDAGEGQSTRCAALAHIFRAMARHPEMVAGEGRYCTMLMRAFDGALVGKLGADASYAIGVRASDATRQLGTDGALGISVKIEDGNLEMLYAVVTELLERLGIGSPDVRSQLASFHHPQRVNTMGVTTGGVSFPFKLRGSKSNVDDPRLAAVAR
notes: as for B3
Km ([3]; with optimal Zn2+ (metal cofactor)): 500 ± 100 µM
